Measured values from the supplement of paper PMC5998384.

Tests used:
HeLa Kyoto [1] = assay: solubility change mitosis vs G1/S (difference of NP-40 vs SDS log2 ratios) (log2 ratio difference); higher = more soluble in mitosis
HeLa Kyoto [2] = assay: solubility in G1/S (NP-40 vs SDS abundance) (log2 ratio); higher = more soluble; settings: cell cycle stage: G1/S
HeLa Kyoto [3] = assay: melting temperature (median over replicates), in situ; higher = more thermally stable
HeLa Kyoto [4] = assay: thermal stability score vs G1/S (z-score of summed log2 fold changes over temperatures); higher = more thermally stable than in G1/S
[5] = cell cycle stage: early G1 (4.5 h after nocodazole release)
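Throughout, for melting temperature (median over replicates), in situ: HeLa Kyoto cells synchronized by double thymidine or nocodazole block, proteins quantified by TMT10plex mass spectrometry, three independent biological replicates.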
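Throughout, for solubility change mitosis vs G1/S (difference of NP-40 vs SDS log2 ratios): synchronized HeLa Kyoto cells (double thymidine block for G1/S, nocodazole release for mitosis), protein amounts in NP-40 versus SDS lysates quantified by mass spectrometry, three biological replicates.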
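Throughout, for solubility in G1/S (NP-40 vs SDS abundance): HeLa Kyoto cells arrested at G1/S by double thymidine block, proteins quantified by TMT10plex mass spectrometry in mild NP-40 versus SDS extracts, three biological replicates.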
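Throughout, for thermal stability score vs G1/S (z-score of summed log2 fold changes over temperatures): synchronized HeLa Kyoto cells, proteins quantified by TMT10plex mass spectrometry, three biological replicates, mitosis taken 0.5 h after nocodazole release, G1/S directly after double thymidine block.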

Chain of RPIA (chain, as listed by the source): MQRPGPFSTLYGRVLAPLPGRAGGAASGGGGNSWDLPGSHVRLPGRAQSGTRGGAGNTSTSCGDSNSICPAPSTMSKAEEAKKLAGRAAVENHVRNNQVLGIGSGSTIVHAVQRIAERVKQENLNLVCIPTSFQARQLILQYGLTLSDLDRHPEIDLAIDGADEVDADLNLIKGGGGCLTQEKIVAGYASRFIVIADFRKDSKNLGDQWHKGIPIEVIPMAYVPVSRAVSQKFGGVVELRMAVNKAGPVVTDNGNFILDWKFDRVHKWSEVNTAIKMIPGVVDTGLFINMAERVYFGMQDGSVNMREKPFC
Chain of ZMAT2 (chain, as listed by the source): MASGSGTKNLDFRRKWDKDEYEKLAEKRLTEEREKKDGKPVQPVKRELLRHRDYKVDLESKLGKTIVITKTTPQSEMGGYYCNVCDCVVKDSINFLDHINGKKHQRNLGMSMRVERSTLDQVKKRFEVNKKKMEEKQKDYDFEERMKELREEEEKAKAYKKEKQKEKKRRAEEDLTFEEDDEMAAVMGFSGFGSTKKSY

MTANRLAESLLALSQQEELADLPKDYLLSESEDEGDNDGERKHQKLLEAISSLDGKNRRKLAERSEASLKVSEFNVSSEGSGEKLVLADLLEPVKTSSSLATVKKQLSRVKSKKTVELPLNKEEIERIHREVAFNKTAQVLSKWDPVVLKNRQAEQLVFPLEKEEPAIAPIEHVLSGWKARTPLEQEIFNLLHKNKQPVTDPLLTPVEKASLRAMSLEEAKMRRAELQRARALQSYYEAKARREKKIKSKKYHKVVKKGKAKKALKEFEQLRKVNPAAALEELEKIEKARMMERMSLKHQNSGKWAKSKAIMAKYDLEARQAMQEQLSKNKELTQKLQVASESEEEEGGTEDVEELLVPDVVNEVQMNADGPNPWMLRSCTSDTKEAATQEDPEQLPELEAHGVSESEGEERPVAEEEILLREFEERRSLRKRSELSQDAEPAGSQETKDSGSQEVLSELRVLSQKLKENHQSRKQKASSEGTIPQVQREEPAPEEEEPLLLQRPERVQTLEELEELGKEECFQNKELPRPVLEGQQSERTPNNRPDAPKEKKKKEQMIDLQNLLTTQSPSVKSLAVPTIEELEDEEERNHRQMIKEAFAGDDVIRDFLKEKREAVEASKPKDVDLTLPGWGEWGGVGLKPSAKKRRRFLIKAPEGPPRKDKNLPNVIINEKRNIHAAAHQVRVLPYPFTHHWQFERTIQTPIGSTWNTQRAFQKLTTPKVVTKPGHIINPIKAEDVGYRSSSRSDLSVIQRNPKRITTRHKKQLKKCSVD [UTP14A]
solubility change mitosis (log2) (HeLa Kyoto [1]): 0.895 | solubility in G1/S (log2) (HeLa Kyoto [2]): -1.64 | melting temperature (HeLa Kyoto [3]; cell cycle stage: G1/S): 53 °C | melting temperature (HeLa Kyoto [3]; cell cycle stage: mitosis): 52.8 °C | thermal stability score (HeLa Kyoto [4]; [5]): -4.25 | thermal stability score (HeLa Kyoto [4]; cell cycle stage: mitosis): -2.2

RPIA
solubility change mitosis (log2) (HeLa Kyoto [1]): -0.157 | solubility in G1/S (log2) (HeLa Kyoto [2]): 0.208 | melting temperature (HeLa Kyoto [3]; cell cycle stage: G1/S): 56.4 °C | melting temperature (HeLa Kyoto [3]; cell cycle stage: mitosis): 55.2 °C | thermal stability score (HeLa Kyoto [4]; [5]): -0.283 | thermal stability score (HeLa Kyoto [4]; cell cycle stage: mitosis): -2.14

MKKVRLKELESRLQQVDGFEKPKLLLEQYPTRPHIAACMLYTIHNTYDDIENKVVADLGCGCGVLSIGTAMLGAGLCVGFDIDEDALEIFNRNAEEFELTNIDMVQCDVCLLSNRMSKSFDTVIMNPPFGTKNNKGTDMAFLKTALEMARTAVYSLHKSSTREHVQKKAAEWKIKIDIIAELRYDLPASYKFHKKKSVDIEVDLIRFSF [METTL5]
solubility change mitosis (log2) (HeLa Kyoto [1]): -0.277 | solubility in G1/S (log2) (HeLa Kyoto [2]): -0.0292 | melting temperature (HeLa Kyoto [3]; cell cycle stage: G1/S): 58.9 °C | melting temperature (HeLa Kyoto [3]; cell cycle stage: mitosis): 63.4 °C | thermal stability score (HeLa Kyoto [4]; [5]): -0.685 | thermal stability score (HeLa Kyoto [4]; cell cycle stage: mitosis): -0.982

MANRGPAYGLSREVQQKIEKQYDADLEQILIQWITTQCRKDVGRPQPGRENFQNWLKDGTVLCELINALYPEGQAPVKKIQASTMAFKQMEQISQFLQAAERYGINTTDIFQTVDLWEGKNMACVQRTLMNLGGLAVARDDGLFSGDPNWFPKKSKENPRNFSDNQLQEGKNVIGLQMGTNRGASQAGMTGYGMPRQIL [TAGLN2]
solubility change mitosis (log2) (HeLa Kyoto [1]): 0.461 | solubility in G1/S (log2) (HeLa Kyoto [2]): 0.348 | melting temperature (HeLa Kyoto [3]; cell cycle stage: G1/S): 50.9 °C | melting temperature (HeLa Kyoto [3]; cell cycle stage: mitosis): 51.7 °C | thermal stability score (HeLa Kyoto [4]; [5]): -1.52 | thermal stability score (HeLa Kyoto [4]; cell cycle stage: mitosis): -1.77

ZMAT2
solubility change mitosis (log2) (HeLa Kyoto [1]): 0.427 | solubility in G1/S (log2) (HeLa Kyoto [2]): -0.324 | melting temperature (HeLa Kyoto [3]; cell cycle stage: G1/S): 57.8 °C | melting temperature (HeLa Kyoto [3]; cell cycle stage: mitosis): 54.3 °C | thermal stability score (HeLa Kyoto [4]; [5]): 1.39 | thermal stability score (HeLa Kyoto [4]; cell cycle stage: mitosis): -4.93

USP9X
solubility change mitosis (log2) (HeLa Kyoto [1]): -0.134 | solubility in G1/S (log2) (HeLa Kyoto [2]): -0.226 | melting temperature (HeLa Kyoto [3]; cell cycle stage: G1/S): 50.4 °C | melting temperature (HeLa Kyoto [3]; cell cycle stage: mitosis): 50.6 °C | thermal stability score (HeLa Kyoto [4]; [5]): -0.0892 | thermal stability score (HeLa Kyoto [4]; cell cycle stage: mitosis): 0.618

MAGTGLVAGEVVVDALPYFDQGYEAPGVREAAAALVEEETRRYRPTKNYLSYLTAPDYSAFETDIMRNEFERLAARQPIELLSMKRYELPAPSSGQKNDITAWQECVNNSMAQLEHQAVRIENLELMSQHGCNAWKVYNENLVHMIEHAQKELQKLRKHIQDLNWQRKNMQLTAGSKLREMESNWVSLVSKNYEIERTIVQLENEIYQIKQQHGEANKENIRQDF [BCAS2]
solubility change mitosis (log2) (HeLa Kyoto [1]): 0.721 | solubility in G1/S (log2) (HeLa Kyoto [2]): -0.134 | melting temperature (HeLa Kyoto [3]; cell cycle stage: G1/S): 50.4 °C | melting temperature (HeLa Kyoto [3]; cell cycle stage: mitosis): 50.3 °C | thermal stability score (HeLa Kyoto [4]; [5]): -0.858 | thermal stability score (HeLa Kyoto [4]; cell cycle stage: mitosis): -0.925
